Key:
[1] = target: bRSV F DS2-v35 (ATue51908 sc9-10 DS-Cav1 A149C Y458C) (bovine respiratory syncytial virus, strain ATue51908 | bacteriophage T4); assay: negative stain EM; about 0.01 mg/ml, 10 mM HEPES pH 7.0, 150 mM KCl, 0.75% uranyl formate; reference-free 2D class averaging
[2] = target: bRSV F DS2-v35 (ATue51908 sc9-10 DS-Cav1 A149C Y458C) (bovine respiratory syncytial virus, strain ATue51908 | bacteriophage T4); assay: SEC; after nickel and Strep-Tactin affinity columns and cleavage of the C-terminal affinity tags; SEC in PBS
[3] = target: bRSV F ATue51908 DS-Cav1 (bovine respiratory syncytial virus, strain ATue51908 | bacteriophage T4); assay: negative stain EM; about 0.01 mg/ml, 10 mM HEPES pH 7.0, 150 mM KCl, 0.75% uranyl formate; reference-free 2D class averaging
[4] = target: bRSV F ATue51908 DS-Cav1 (bovine respiratory syncytial virus, strain ATue51908 | bacteriophage T4); assay: SEC; after nickel and Strep-Tactin affinity columns and cleavage of the C-terminal affinity tags; SEC in PBS
[5] = target: bRSV F RB94 DS-Cav1 (bovine respiratory syncytial virus, strain RB94 | bacteriophage T4); assay: negative stain EM; about 0.01 mg/ml, 10 mM HEPES pH 7.0, 150 mM KCl, 0.75% uranyl formate; reference-free 2D class averaging
[6] = target: bRSV F RB94 DS-Cav1 (bovine respiratory syncytial virus, strain RB94 | bacteriophage T4); assay: SEC; after nickel and Strep-Tactin affinity columns and cleavage of the C-terminal affinity tags; SEC in PBS
[7] = target: bRSV F DS2-v1 (391-2 sc9 DS-Cav1 Q98C Q361C) (bovine respiratory syncytial virus, strain 391-2 | bacteriophage T4); assay: negative stain EM; about 0.01 mg/ml, 10 mM HEPES pH 7.0, 150 mM KCl, 0.75% uranyl formate; reference-free 2D class averaging
[8] = target: bRSV F DS2-v1 (391-2 sc9 DS-Cav1 Q98C Q361C) (bovine respiratory syncytial virus, strain 391-2 | bacteriophage T4); assay: SEC; after nickel and Strep-Tactin affinity columns and cleavage of the C-terminal affinity tags; SEC in PBS
[9] = target: bRSV F 391-2 DS-Cav1 (bovine respiratory syncytial virus, strain 391-2 | bacteriophage T4); assay: negative stain EM; about 0.01 mg/ml, 10 mM HEPES pH 7.0, 150 mM KCl, 0.75% uranyl formate; reference-free 2D class averaging
[10] = target: bRSV F 391-2 DS-Cav1 (bovine respiratory syncytial virus, strain 391-2 | bacteriophage T4); assay: SEC; after nickel and Strep-Tactin affinity columns and cleavage of the C-terminal affinity tags; SEC in PBS
[11] = target: bRSV F DS2-v33 (391-2 sc9-10 DS-Cav1 Q98C Q361C) (bovine respiratory syncytial virus, strain 391-2 | bacteriophage T4); assay: negative stain EM; about 0.01 mg/ml, 10 mM HEPES pH 7.0, 150 mM KCl, 0.75% uranyl formate; reference-free 2D class averaging
[12] = target: bRSV F DS2-v33 (391-2 sc9-10 DS-Cav1 Q98C Q361C) (bovine respiratory syncytial virus, strain 391-2 | bacteriophage T4); assay: SEC; after nickel and Strep-Tactin affinity columns and cleavage of the C-terminal affinity tags; SEC in PBS

bRSV F DS2-v35 (ATue51908 sc9-10 DS-Cav1 A149C Y458C) (domain or fragment)
stoichiometry N [1]: 3 | stoichiometry N [2]: 3

bRSV F ATue51908 DS-Cav1 (domain or fragment)
stoichiometry N [3]: 3 | stoichiometry N [4]: 3

bRSV F RB94 DS-Cav1 (domain or fragment)
stoichiometry N [5]: 3 | stoichiometry N [6]: 3

bRSV F DS2-v1 (391-2 sc9 DS-Cav1 Q98C Q361C) (domain or fragment)
stoichiometry N [7]: 3 | stoichiometry N [8]: 3

bRSV F 391-2 DS-Cav1 (domain or fragment)
stoichiometry N [9]: 3 | stoichiometry N [10]: 3

bRSV F DS2-v33 (391-2 sc9-10 DS-Cav1 Q98C Q361C) (domain or fragment)
stoichiometry N [11]: 3 | stoichiometry N [12]: 3
